The values that follow come from US20160185865A1 (Dana-Farber, published 2016).

Assay [1] has as its target T1, human CC chemokine receptor 4 (CCR4) (human, UniProt P51679 1-360).
T1 construct: whole, on cells; also called hCCR4
T1 sequence (looked up): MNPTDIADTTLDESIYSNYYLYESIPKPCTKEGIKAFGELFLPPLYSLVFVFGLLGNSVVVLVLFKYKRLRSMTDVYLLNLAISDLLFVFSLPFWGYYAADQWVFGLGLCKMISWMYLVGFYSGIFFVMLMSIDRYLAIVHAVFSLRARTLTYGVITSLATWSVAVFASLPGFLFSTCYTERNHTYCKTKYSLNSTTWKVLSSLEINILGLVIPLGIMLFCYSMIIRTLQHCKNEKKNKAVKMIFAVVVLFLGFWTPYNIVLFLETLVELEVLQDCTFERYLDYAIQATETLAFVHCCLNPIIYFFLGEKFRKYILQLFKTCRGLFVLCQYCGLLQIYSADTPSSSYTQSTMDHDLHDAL
Briefly: FACS titration (GMFI), 0 to 100 µg/mL in two-fold steps; cells not named in the legend.

The target in assay [2] is T1, human CC chemokine receptor 4 (CCR4). The experiment in a line: FACS, CCR4+ Mac-1 cells, dose dependent binding curve. (In general: Flow cytometry measures light scatter and fluorescence of single cells or particles in a stream.)
For assay [3] the target is unchanged. Briefly: binding curve of FIG. 20B; cells not given.

B1: h1567 VL-CDR3 mutant M1 (H105Q) (Fc fusion, not shown: a dimerising Fc or GST)
scFv: QVQLVQSGAEVKKPGASVKVSCKASGYTFASYYMHWMRQAPGQGLEWIGWINPGNVNTKYNEKFKGRATLTVDTSTNTAYMELSSLRSEDTAVYYCARSTYYRPLDYWGQGTLVTVSSGGGGSGGGGSGGGGSDIVMTQSPDSLAVSLGERATINCKSSQSILYSSNQKNYLAWYQQKPGQSPKLLIYWASTRESGVPDRFSGSGSGTDFTLTISSLQAEDVAVYYCQQYLSSYTFGQGTKLEIK
For orientation: EC50 (read off the curve) means the concentration that produces a half-maximal response. Low readings indicate greater potency, high ones weaker potency. For B1, the half-maximal effective concentration (EC50 (read off the curve)) in assay [1] is about 0.5 µg/mL.

B2: Antibody 2-3 scFv-Fc (Fc fusion, not shown: a dimerising Fc or GST)
scFv: QVQLVQSGAEVKKPGASVKVSCKASGYTFASAWMHWMRQAPGQGLEWIGWINPGNVNTKYNEKFKGRATLTVDTSTNTAYMELSSLRSEDTAVYYCARSTYYRPLDYWGQGTLVTVSSGGGGSGGGGSGGGGSDIVMTQSPDSLAVSLGERATINCKSSQSILYSSNQKNYLAWYQQKPGQSPKLLIYWASTRESGVPDRFSGSGSGTDFTLTISSLQAEDVAVYYCHQYMSSYTFGQGTKLEIK
notes: also called Ab2-3 scFv-Fc; Mab 2-3
The term EC50 denotes the concentration needed to bring the measured effect to its halfway point. A lower EC50 goes with higher potency in that assay. In turn, B2 showed a concentration giving a half-maximal response (EC50) in assay [2] of 1.39 nM.

B3: KW0761 (humanized KM2760 antibody) (antibody, V domains shown)
VH: EVQLVESGGDLVQPGRSLRLSCAASGFIFSNYGMSWVRQAPGKGLEWVATISSASTYSYYPDSVKGRFTISRDNAKNSLYLQMNSLRVEDTALYYCGRHSDGNFAFGYWGQGTLVTVSS
VL: DVLMTQSPLSLPVTPGEPASISCRSSRNIVHINGDTYLEWYLQKPGQSPQLLIYKVSNRFSGVPDRFSGSGSGTDFTLKISRVEAEDVGVYYCFQGSLLPWTFGQGTKVEIK
For B3, it took 2.19 nM to reach a half-maximal effect in assay [3] (EC50).

B4: mAb2-3 (Ab2-3IgG) (antibody, V domains shown)
VH: QVQLVQSGAEVKKPGASVKVSCKASGYTFASAWMHWMRQAPGQGLEWIGWINPGNVNTKYNEKFKGRATLTVDTSTNTAYMELSSLRSEDTAVYYCARSTYYRPLDYWGQGTLVTVSS
VL: not shown
notes: IgG form made by cloning VH and VL into the TCAE5.3 vector (human IgG1); also called APC-labeled mAb2-3
The molecule B4 had an EC50 in assay [3] of 0.35 nM.
